Assays:
human GPC3 on cells [1] = target: T1, human GPC3 on cells (human, UniProt P51654 25-554); test: FACS, Hep3B cells
T1 construct: whole, on cells; over-expressed on CHOK1 cells or endogenous on HEPG2, Hep3B and Huh-7 hepatocellular carcinoma cells; the cell line is named under assay; also called GPC3-CHOK1 cells; human GPC3 over-expressed CHOK1 cells
Procedure: (§1) To evaluate the antigen binding property, the humanized antibodies were analyzed for their binding to human GPC3 over-expressed CHOK1 cells, HEPG2 cells, Hep3B cells and Huh-7 cells by FACS. Briefly, GPC3-CHOK1 cells, HEPG2 cells, Hep3B cells and Huh-7 cells were firstly incubated with Fc blocking reagent at 4° C. for 15 mins. Cells were washed by FACS buffer and divided to each well with 4-fold serially diluted humanized antibodies starting at 10 μg/mL at 4° C. for 60 mins. Cells were washed by FACS buffer and fixed with 2% PFA at RT for 15 mins. […] The 16 humanized antibodies were separated into two plates.

human GPC3 on cells [2] = target: T1, human GPC3 on cells; test: FACS, HEPG2 cells
Procedure: as §1

[3] = target: T2, human GPC3-his tag protein (human, UniProt P51654 25-559, limits assumed); test: SPR Biacore, mAb captured on CM5, GPC3-his dilution series (full kinetics)
T2 construct: recombinant soluble antigen used as analyte in all Biacore runs; also called recombinant GPC3 protein; rhGPC3-His; not shown: His tag
Procedure: The binding of the humanized antibodies to recombinant GPC3 protein (human GPC3-his tag) was tested by Biacore using a capture method. 52H5D3B8-6 #-V+VL, 52H5D3B8-6 #-VH1+VL1, 52H5D3B8-6 #-VH1+VL3, 52H5D3B8-6 #-V1+VL4, 52H5D3B8-6 #-VH2+VL4, 52H5D3B8-6 #-VH3+VL1, 52H5D3B8-6 #-VH3+VL3 mAbs were captured using CM5 sensor chip. A serial dilution of human GPC3-his tag protein was injected over captured antibody for 2 mins at a flow rate of […]. The antigen was allowed to dissociate for 360 s. All the experiments were carried out on a Biacore T200.

human GPC3 on cells [4] = target: T1, human GPC3 on cells; test: FACS, GPC3-CHOK1 cells
Procedure: as §1

human GPC3 on cells [5] = target: T1, human GPC3 on cells; test: FACS, Huh-7 cells
Procedure: as §1

[6] = target: T2, human GPC3-his tag protein; test: SPR Biacore 8K, mAb captured, affinity ranking
Procedure: To evaluate antigen binding activity, the chimeric antibody's affinity was measured by Biacore 8K. A serial dilution of human GPC3-his tag protein was injected over captured chimeric antibody 52H5D3B8-6 #-VH+VL for 3 mins at a flow rate of 30 μl/min. The antigen was allowed to dissociate for 720 s. Among the multi detection doses, two concentrations with most close affinity to the chimeric antibody's affinity were chosen for the 16 humanized antibodies' affinity detection.

human GPC3 on cells [7] = target: T1, human GPC3 on cells; test: FACS, Huh-7 cells; remark: listed apart in the source
Procedure: as §1, with “CHOK1” for “CHOK1 cells, HEPG2 cells, Hep3B”, “GPC3-CHOK1” for “GPC3-CHOK1 cells, HEPG2 cells, Hep3B”, “As different plates might affect the EC50 of 52H5D3B8-VH+VL, the 12” for “The 16”

[8] = target: T2, human GPC3-his tag protein; test: SPR Biacore 8K, mAb captured, affinity ranking; remark: listed apart in the source
Procedure: To evaluate antigen binding activity, the chimeric antibody's affinity was measured by Biacore 8K. Two concentrations with most close affinity to the chimeric antibody's affinity were chosen for the 12 humanized antibodies' affinity detection. Human GPC3-his tag protein was injected over captured antibody for 3 mins at a flow rate of 30 μl/min. The antigen was allowed to dissociate for 720 s.

human GPC3 on cells [9] = target: T1, human GPC3 on cells; test: FACS, GPC3-CHOK1 cells; remark: listed apart in the source
Procedure: as §1, with “CHOK1” for “CHOK1 cells, HEPG2 cells, Hep3B”, “GPC3-CHOK1” for “GPC3-CHOK1 cells, HEPG2 cells, Hep3B”, “As different plates might affect the EC50 of 52H5D3B8-VH+VL, the 12” for “The 16”

human GPC3 on cells [10] = target: T1, human GPC3 on cells; test: FACS, Huh-7 cells; remark: listed apart in the source
Procedure: as §1

human GPC3 on cells [11] = target: T1, human GPC3 on cells; test: FACS, HEPG2 cells; remark: listed apart in the source
Procedure: as §1

human GPC3 on cells [12] = target: T1, human GPC3 on cells; test: FACS, GPC3-CHOK1 cells; remark: listed apart in the source
Procedure: as §1

human GPC3 on cells [13] = target: T1, human GPC3 on cells; test: FACS, Hep3B cells; remark: listed apart in the source
Procedure: as §1

Row | Binder | Kd [6] [nM] | koff [6] [s⁻¹] | kon [6] [M⁻¹ s⁻¹] | EC50 (human GPC3 on cells [7]) [µg/mL] | Kd [8] [nM] | koff [8] [s⁻¹] | kon [8] [M⁻¹ s⁻¹] | EC50 (human GPC3 on cells [9]) [µg/mL] | other results
1 | 52H5D3B8-6#-VH2+VL4 (antibody, V domains shown, humanized) VH: QVQLVQSGAEVKKPGASVKVSCKASGYTFTDYEMHWVRQAPGQGLEWIGAIHPGSGGTAYNQKFKGRVTMTADTSTSTVYMELSSLRSEDTAVYYCTRYYSYAYWGQGTLVTVSS VL: DIVMTQTPLSLSVTPGQPASISCRSSQSLVHSNGNTYLQWYLQKPGQSPKLLIYKVSNRFSGVPDRFSGSGSGTDFTLKISRVEAEDVGVYFCFQSIHVPYTFGGGTKLEIK | 0.994 | 0.000645 | 648000 | – | – | – | – | – | EC50 (human GPC3 on cells [1]): 0.0632 µg/mL; EC50 (human GPC3 on cells [2]): 0.0438 µg/mL; Kd [3]: 1.12 nM; koff [3]: 0.000669 s⁻¹; kon [3]: 599000 M⁻¹ s⁻¹; EC50 (human GPC3 on cells [4]): 0.041 µg/mL; EC50 (human GPC3 on cells [5]): 0.0381 µg/mL
2 | 52H5D3B8-6#-VH3+VL4 (antibody, V domains shown, humanized) VH: QVQLVQSGAEVKKPGASVKVSCKALGYTFTDYEMHWVKQAPGQGLEWIGAIHPGSGGTAYNQKFKGRVTLTADTSTSTVYMELSSLRSEDTAVYYCTRYYSYAYWGQGTLVTVSS VL: DIVMTQTPLSLSVTPGQPASISCRSSQSLVHSNGNTYLQWYLQKPGQSPKLLIYKVSNRFSGVPDRFSGSGSGTDFTLKISRVEAEDVGVYFCFQSIHVPYTFGGGTKLEIK | 0.725 | 0.000516 | 711000 | – | – | – | – | – | EC50 (human GPC3 on cells [10]): 0.0322 µg/mL; EC50 (human GPC3 on cells [11]): 0.0422 µg/mL; EC50 (human GPC3 on cells [12]): 0.0419 µg/mL; EC50 (human GPC3 on cells [13]): 0.0629 µg/mL
3 | 52H5D3B8-6#-VH4+VL1 (antibody, V domains shown, humanized) VH: QVQLVQSGAEVKKPGASVKVSCKALGYTFTDYEMHWVKQAPGQGLEWIGAIHPGSGGTAYNQKFKGRATMTADKFTSTVYMELSSLRSEDTAVYYCTRYYSYAYWGQGTLVTVSS VL: DIVMTQTPLSLSVTPGQPASISCRSSQSLVHSNGNTYLQWYLQKPGQSPQLLIYKVSNRFSGVPDRFSGSGSGTDFTLKISRVEAEDVGVYYCFQSIHVPYTFGGGTKLEIK | 1.01 | 0.000646 | 643000 | – | – | – | – | – | EC50 (human GPC3 on cells [10]): 0.0306 µg/mL; EC50 (human GPC3 on cells [11]): 0.04 µg/mL; EC50 (human GPC3 on cells [12]): 0.0387 µg/mL; EC50 (human GPC3 on cells [13]): 0.0565 µg/mL
4 | 52H5D3B8-6#-VH3+VL1 (antibody, V domains shown, humanized) VH: QVQLVQSGAEVKKPGASVKVSCKALGYTFTDYEMHWVKQAPGQGLEWIGAIHPGSGGTAYNQKFKGRVTLTADTSTSTVYMELSSLRSEDTAVYYCTRYYSYAYWGQGTLVTVSS VL: DIVMTQTPLSLSVTPGQPASISCRSSQSLVHSNGNTYLQWYLQKPGQSPQLLIYKVSNRFSGVPDRFSGSGSGTDFTLKISRVEAEDVGVYYCFQSIHVPYTFGGGTKLEIK | 0.838 | 0.000578 | 689000 | – | – | – | – | – | EC50 (human GPC3 on cells [1]): 0.0738 µg/mL; EC50 (human GPC3 on cells [2]): 0.0471 µg/mL; Kd [3]: 1 nM; koff [3]: 0.000579 s⁻¹; kon [3]: 579000 M⁻¹ s⁻¹; EC50 (human GPC3 on cells [4]): 0.0373 µg/mL; EC50 (human GPC3 on cells [5]): 0.0413 µg/mL
5 | Hu 52H5D3B8-1 (antibody, V domains shown, humanized 52H5D3B8; also called 52H5D3B8 VH0 + VL0) VH: EVQLVQSGAEVKKPGASVKVSCKASGYTFTDYEMHWVRQAPGQGLEWMGAIHPGSGGTAYNQKFKGRVTMTRDTSISTAYMELSRLRSDDTAVYYCARFYSYAYWGQGTLVTVSS VL: DVVMTQTPLSLSVTPGQPASISCRSSQSLVHSNGNTYLQWYLQKPGQSPQLLIYKVSNRFSGVPDRFSGSGSGTDFTLKISRVEAEDVGVYYCSQSIHVPYTFGGGTKVEIK | – | – | – | 0.0243 | 6.33 | 0.00161 | 255000 | 0.0404 | –

More lines, main results first:

Row | Kd [6] [nM] | koff [6] [s⁻¹] | kon [6] [M⁻¹ s⁻¹] | EC50 (human GPC3 on cells [7]) [µg/mL] | Kd [8] [nM] | koff [8] [s⁻¹] | kon [8] [M⁻¹ s⁻¹] | EC50 (human GPC3 on cells [9]) [µg/mL] | Binder | other results
6 | – | – | – | 0.0195 | 5.71 | 0.00163 | 285000 | 0.0338 | Hu 52H5D3B8-2 (antibody, V domains shown, humanized 52H5D3B8; also called 52H5D3B8 VH0 + VL1) VH: EVQLVQSGAEVKKPGASVKVSCKASGYTFTDYEMHWVRQAPGQGLEWMGAIHPGSGGTAYNQKFKGRVTMTRDTSISTAYMELSRLRSDDTAVYYCARFYSYAYWGQGTLVTVSS VL: DVVMTQTPLSLSVTPGQPASISCRSSQSLVHSNGNTYLQWYLQKPGQSPQLLIYKVSNRFSGVPDRFSGSGSGTDFTLKISRVEAEDVGVYFCSQSIHVPYTFGGGTKVEIK | –
7 | – | – | – | 0.0213 | 4.34 | 0.00176 | 405000 | 0.0387 | Hu 52H5D3B8-3 (antibody, V domains shown, humanized 52H5D3B8; also called 52H5D3B8 VH1 + VL0) VH: EVQLVQSGAEVKKPGASVKVSCKASGYTFTDYEMHWVRQAPGQGLEWMGAIHPGSGGTAYNQKFKGRVTMTRDTSISTAYMELSRLRSDDTAVYYCTRFYSYAYWGQGTLVTVSS VL: DVVMTQTPLSLSVTPGQPASISCRSSQSLVHSNGNTYLQWYLQKPGQSPQLLIYKVSNRFSGVPDRFSGSGSGTDFTLKISRVEAEDVGVYYCSQSIHVPYTFGGGTKVEIK | –
8 | – | – | – | 0.0402 | 2.87 | 0.000916 | 319000 | 0.0544 | Hu 52H5D3B8-5 (antibody, V domains shown, humanized 52H5D3B8; also called 52H5D3B8 VH2 + VL0) VH: EVQLVQSGAEVKKPGASVKVSCKASGYTFTDYEMHWVRQAPGQGLEWMGAIHPGSGGTAYNQKFKGRVTMTADTSISTAYMELSRLRSDDTAVYYCTRFYSYAYWGQGTLVTVSS VL: DVVMTQTPLSLSVTPGQPASISCRSSQSLVHSNGNTYLQWYLQKPGQSPQLLIYKVSNRFSGVPDRFSGSGSGTDFTLKISRVEAEDVGVYYCSQSIHVPYTFGGGTKVEIK | –
9 | – | – | – | 0.0295 | 2.94 | 0.000961 | 327000 | 0.0509 | Hu 52H5D3B8-6 (antibody, V domains shown, humanized 52H5D3B8; also called 52H5D3B8 VH2 + VL1) VH: EVQLVQSGAEVKKPGASVKVSCKASGYTFTDYEMHWVRQAPGQGLEWMGAIHPGSGGTAYNQKFKGRVTMTADTSISTAYMELSRLRSDDTAVYYCTRFYSYAYWGQGTLVTVSS VL: DVVMTQTPLSLSVTPGQPASISCRSSQSLVHSNGNTYLQWYLQKPGQSPQLLIYKVSNRFSGVPDRFSGSGSGTDFTLKISRVEAEDVGVYFCSQSIHVPYTFGGGTKVEIK | –
10 | – | – | – | 0.0196 | 4.6 | 0.00164 | 357000 | 0.0324 | Hu 52H5D3B8-4 (antibody, V domains shown, humanized 52H5D3B8; also called 52H5D3B8 VH1 + VL1) VH: EVQLVQSGAEVKKPGASVKVSCKASGYTFTDYEMHWVRQAPGQGLEWMGAIHPGSGGTAYNQKFKGRVTMTRDTSISTAYMELSRLRSDDTAVYYCTRFYSYAYWGQGTLVTVSS VL: DVVMTQTPLSLSVTPGQPASISCRSSQSLVHSNGNTYLQWYLQKPGQSPQLLIYKVSNRFSGVPDRFSGSGSGTDFTLKISRVEAEDVGVYFCSQSIHVPYTFGGGTKVEIK | –
11 | – | – | – | 0.0348 | 4.18 | 0.00102 | 244000 | 0.0572 | Hu 52H5D3B8-9 (antibody, V domains shown, humanized 52H5D3B8; also called 52H5D3B8 VH4 + VL0) VH: EVQLVQSGAEVKKPGASVKVSCKASGYTFTDYEMHWVRQAPGQGLEWIGAIHPGSGGTAYNQKFKGRVTLTADKSISTAYMELSRLRSDDTAVYYCTRFYSYAYWGQGTLVTVSS VL: DVVMTQTPLSLSVTPGQPASISCRSSQSLVHSNGNTYLQWYLQKPGQSPQLLIYKVSNRFSGVPDRFSGSGSGTDFTLKISRVEAEDVGVYYCSQSIHVPYTFGGGTKVEIK | –

Source: patent publication US20240409663A1 (CONCEPT TO MEDICINE BIOTECH, published 2024)
